Data set [1] has as its target Recreated full-length transaldolase of Bacillus methanolicus MGA3 (Ta^MGA3rec), C-terminal hexahistidine-tagged (Bacillus methanolicus MGA3). Briefly: SEC; gel filtration of 1 mg purified Ta dissolved in 2 ml of 20 mM Tris-HCl, pH 7.8, with Ta activity assays of the eluted fractions; eluted in a single fraction corresponding to 54 kDa.
Substrate in data set [2]: O=C[C@H](O)[C@H](O)COP(=O)(O)O
Briefly: purified protein. Conditions: co-substrate F6P, 50 mM Tris-HCl pH 7.8, 50 °C, 0.25 mM NADH. Format: biochemical, Bacillus methanolicus.

Data set [3] deals with the molecule itself. Description: SEC; gel filtration of 1 mg purified Ta dissolved in 2 ml of 20 mM Tris-HCl, pH 7.8, with Ta activity assays of the eluted fractions; eluted in a single fraction corresponding to 54 kDa. For orientation: SEC sorts molecules by how far they enter the pores of the column.

Broadly, the stoichiometry N is a count of units in the complex or per binding partner. With “Recreated full-length transaldolase of Bacillus methanolicus MGA3 (Ta^MGA3rec), C-terminal hexahistidine-tagged (enzyme)”, the stoichiometry N in data set [1] was found to be 2.

B1: Transaldolase of Bacillus methanolicus PB1 (Ta^PB1), C-terminal hexahistidine-tagged (enzyme, UniProt I3E1B6 1-229, looked up)
chain: MIQNSIQRNKGGVIIKFFIDTANIDEIREAHSLGILSGVTTNPSLVAKEKNVKFHDRLREIAGLVPGSVSAEVIALDTEGMIKEGRELASIAPNITVKVPMTPESLKAVHALSKEGIKTNVTLIFSANQALLAARAGATYVSPFLGRLDDIGHNGLELISTIADIFAIHQIKTEIIAASIRHPQHVTEAALKGAHIATLPYKVILQLFKHPLTDKGIEAFLADWKKRGQ
notes: Transaldolase (Ta) of Bacillus methanolicus PB1, UniProt I3E1B6; also called PB1 Ta protein; PB1 Ta gene product; source: E. coli BL21 (DE3), pET28b-ta^PB1, purified (Ni-NTA chromatography)
By Km is commonly meant the concentration of substrate that gives half-maximal velocity. As a reminder, the kcat is the maximal rate divided by the concentration of active sites. As to B1, in data set [2], the Michaelis-Menten constant (Km) came to 2500 µM, the Vmax worked out at 8.9 U/mg, the kcat was 4 s⁻¹ and the kcat/Km worked out at 1.6 s^− 1 mM^− 1. The “stoichiometry N” value in data set [3] was determined as 2.

For the origin of these results see paper PMC7092467, “Transaldolase in Bacillus methanolicus: biochemical characterization and biological role in ribulose monophosphate cycle” (BMC Microbiology, 2020).
